In publication PMC2756588:

Assays:
Assay in all cases: SPOT array
[1] = target: T1, Abp1, P15891; settings: median of control spots 935
T1 sequence (P15891 535-592, looked up): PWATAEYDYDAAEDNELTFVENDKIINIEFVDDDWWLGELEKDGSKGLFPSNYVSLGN

[2] = target: T2, Bbc1, P47068; settings: median of control spots 796
T2 sequence (P47068 1-78, looked up): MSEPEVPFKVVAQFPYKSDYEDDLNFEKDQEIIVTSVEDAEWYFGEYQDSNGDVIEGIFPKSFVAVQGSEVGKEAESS

[3] = target: Bem1-1, P29366; settings: median of control spots 4282
[4] = target: Bem1-2, P29366; settings: median of control spots 4347
Sequence of Bem1-2, P29366 (P29366 139-227): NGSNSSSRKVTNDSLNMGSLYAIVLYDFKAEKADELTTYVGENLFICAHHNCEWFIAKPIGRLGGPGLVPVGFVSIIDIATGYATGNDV

[5] = target: T3, Boi1, P38041; settings: median of control spots 1162
T3 sequence (P38041 1-86, looked up): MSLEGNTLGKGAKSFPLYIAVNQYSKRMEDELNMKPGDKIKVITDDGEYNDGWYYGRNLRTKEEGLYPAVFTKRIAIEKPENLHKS

[6] = target: T4, Boi2, P39969; settings: median of control spots 1161
T4 sequence (P39969 32-116, looked up): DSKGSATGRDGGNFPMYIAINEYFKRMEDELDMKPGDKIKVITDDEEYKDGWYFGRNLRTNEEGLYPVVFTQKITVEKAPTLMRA

[7] = target: T5, Bud14, P27637; settings: median of control spots 956
T5 sequence (P27637 247-328, looked up): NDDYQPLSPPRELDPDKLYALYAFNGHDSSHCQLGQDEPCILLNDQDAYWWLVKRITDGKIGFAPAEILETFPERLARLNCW

[8] = target: T6, Bzz1-1, P38822; settings: median of control spots 4446
T6 sequence (P38822 478-572, looked up): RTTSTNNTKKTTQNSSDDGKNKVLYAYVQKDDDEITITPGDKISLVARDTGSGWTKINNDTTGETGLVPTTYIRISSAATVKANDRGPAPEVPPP

[9] = target: T7, Bzz1-2, P38822; settings: median of control spots 4538
T7 sequence (P38822 568-633, looked up): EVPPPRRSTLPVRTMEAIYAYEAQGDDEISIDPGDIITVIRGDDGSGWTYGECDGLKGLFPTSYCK

[10] = target: T8, Cdc25, P04821; settings: median of control spots 969
T8 sequence (P04821 50-136, looked up): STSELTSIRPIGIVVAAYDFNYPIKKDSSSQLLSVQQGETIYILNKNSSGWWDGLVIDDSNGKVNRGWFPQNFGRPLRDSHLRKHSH

[11] = target: T9, Cyk3, Q07533; settings: median of control spots 1451
T9 sequence (Q07533 1-83, looked up): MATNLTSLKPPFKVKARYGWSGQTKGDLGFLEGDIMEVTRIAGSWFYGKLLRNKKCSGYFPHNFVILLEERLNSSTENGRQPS

[12] = target: T10, Fus1, P11710; settings: median of control spots 1200
T10 sequence (P11710 432-512, looked up): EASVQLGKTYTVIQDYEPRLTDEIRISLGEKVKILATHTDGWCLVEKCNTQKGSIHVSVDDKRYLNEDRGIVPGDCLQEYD

[13] = target: GST; settings: median of control spots 978
[14] = target: T11, Hof1, Q05080; settings: median of control spots 4086
T11 sequence (Q05080 590-669, looked up): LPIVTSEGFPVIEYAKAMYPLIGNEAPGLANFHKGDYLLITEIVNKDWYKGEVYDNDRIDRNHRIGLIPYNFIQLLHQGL

[15] = target: T12, Hse1, P38753; settings: median of control spots 1727
T12 sequence (P38753 208-285, looked up): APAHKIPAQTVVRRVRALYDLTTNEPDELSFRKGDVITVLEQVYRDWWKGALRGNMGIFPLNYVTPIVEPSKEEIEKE

[16] = target: T13, Lsb1, P53281; settings: median of control spots 388
T13 sequence (P53281 45-122, looked up): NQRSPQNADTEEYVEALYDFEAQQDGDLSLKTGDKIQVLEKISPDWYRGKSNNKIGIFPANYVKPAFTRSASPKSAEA

[17] = target: T14, Lsb3, P43603; settings: median of control spots 406
T14 sequence (P43603 385-451, looked up): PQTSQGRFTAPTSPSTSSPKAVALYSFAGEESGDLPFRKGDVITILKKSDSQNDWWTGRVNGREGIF

[18] = target: T15, Lsb4, P32793; settings: median of control spots 397
T15 sequence (P32793 402-468, looked up): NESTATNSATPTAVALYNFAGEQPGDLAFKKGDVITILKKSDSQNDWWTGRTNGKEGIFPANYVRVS

[19] = target: Myo3, P36006; settings: median of control spots 468
[20] = target: T16, Myo5, Q04439; settings: median of control spots 471
T16 sequence (Q04439 1072-1160, looked up): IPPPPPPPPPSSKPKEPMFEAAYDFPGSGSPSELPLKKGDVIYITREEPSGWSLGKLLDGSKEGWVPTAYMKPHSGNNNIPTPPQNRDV

[21] = target: T17, Nbp2, Q12163; settings: median of control spots 357
T17 sequence (Q12163 103-180, looked up): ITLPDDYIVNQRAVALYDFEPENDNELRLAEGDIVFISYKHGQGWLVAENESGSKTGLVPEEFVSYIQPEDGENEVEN

[22] = target: T18, Pex13, P80667; settings: median of control spots 1341
T18 sequence (P80667 295-386, looked up): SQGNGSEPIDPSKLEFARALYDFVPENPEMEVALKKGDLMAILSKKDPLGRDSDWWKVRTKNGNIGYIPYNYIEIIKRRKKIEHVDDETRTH

[23] = target: T19, Pin3, Q06449; settings: median of control spots 2171
T19 sequence (Q06449 53-122, looked up): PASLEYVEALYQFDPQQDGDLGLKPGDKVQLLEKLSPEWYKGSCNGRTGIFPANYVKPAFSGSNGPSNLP

[24] = target: Rvs167, P39743; settings: median of control spots 2707
Sequence of Rvs167, P39743 (P39743 419-482): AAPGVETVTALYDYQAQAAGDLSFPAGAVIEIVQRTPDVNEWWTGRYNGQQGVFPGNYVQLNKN

[25] = target: Sho1, P40073; settings: median of control spots 1148
Sequence of Sho1, P40073 (P40073 287-367): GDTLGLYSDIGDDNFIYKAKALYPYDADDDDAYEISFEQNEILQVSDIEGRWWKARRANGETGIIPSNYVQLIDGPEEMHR

[26] = target: T20, Sla1-2, P32790; settings: median of control spots 712
T20 sequence (P32790 60-140, looked up): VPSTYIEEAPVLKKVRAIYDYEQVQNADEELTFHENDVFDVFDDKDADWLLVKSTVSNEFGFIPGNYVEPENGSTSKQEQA

[27] = target: T21, Sla1-3, P32790; settings: median of control spots 5475
T21 sequence (P32790 344-424, looked up): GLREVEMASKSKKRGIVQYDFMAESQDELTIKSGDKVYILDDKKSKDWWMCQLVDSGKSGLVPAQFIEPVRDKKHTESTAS

Sequence of Bem1-1, P29366 (P29366 55-141): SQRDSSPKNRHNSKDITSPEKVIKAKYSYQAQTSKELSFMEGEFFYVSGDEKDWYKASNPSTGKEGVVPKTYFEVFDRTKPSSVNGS

B1: unnamed (peptide)
chain: TTAPALPSLPPPPLL
SPOT intensity [1]: 0
SPOT intensity [2]: 0
SPOT intensity [3]: 0
SPOT intensity [4]: 0
SPOT intensity [5]: 0
SPOT intensity [6]: 0
SPOT intensity [7]: 0
SPOT intensity [8]: 0
SPOT intensity [9]: 2
SPOT intensity [10]: 0
SPOT intensity [11]: 0
SPOT intensity [12]: 0
SPOT intensity [13]: 0
SPOT intensity [14]: 6110
SPOT intensity [15]: 0
SPOT intensity [16]: 0
SPOT intensity [17]: 0
SPOT intensity [18]: 0
SPOT intensity [19]: 728
SPOT intensity [20]: 651
SPOT intensity [21]: 0
SPOT intensity [22]: 4
SPOT intensity [23]: 0
SPOT intensity [24]: 0
SPOT intensity [25]: 0
SPOT intensity [26]: 0
SPOT intensity [27]: 0

B2: unnamed (peptide)
chain: TTNRGPPPLPPRANV
SPOT intensity [1]: 48
SPOT intensity [2]: 33
SPOT intensity [3]: 0
SPOT intensity [4]: 11
SPOT intensity [5]: 0
SPOT intensity [6]: 0
SPOT intensity [7]: 1
SPOT intensity [8]: 0
SPOT intensity [9]: 8
SPOT intensity [10]: 0
SPOT intensity [11]: 0
SPOT intensity [12]: 0
SPOT intensity [13]: 0
SPOT intensity [14]: 425
SPOT intensity [15]: 750
SPOT intensity [16]: 1110
SPOT intensity [17]: 892
SPOT intensity [18]: 743
SPOT intensity [19]: 129
SPOT intensity [20]: 206
SPOT intensity [21]: 0
SPOT intensity [22]: 470
SPOT intensity [23]: 48
SPOT intensity [24]: 4620
SPOT intensity [25]: 58
SPOT intensity [26]: 0
SPOT intensity [27]: 1

B3: unnamed (peptide)
chain: PLQSKIPMLPSRRTM
SPOT intensity [1]: 124
SPOT intensity [2]: 29
SPOT intensity [3]: 1
SPOT intensity [4]: 0
SPOT intensity [5]: 0
SPOT intensity [6]: 0
SPOT intensity [7]: 0
SPOT intensity [8]: 0
SPOT intensity [9]: 0
SPOT intensity [10]: 0
SPOT intensity [11]: 2
SPOT intensity [12]: 0
SPOT intensity [13]: 0
SPOT intensity [14]: 186
SPOT intensity [15]: 3
SPOT intensity [16]: 396
SPOT intensity [17]: 635
SPOT intensity [18]: 960
SPOT intensity [19]: 102
SPOT intensity [20]: 35
SPOT intensity [21]: 12
SPOT intensity [22]: 329
SPOT intensity [23]: 280
SPOT intensity [24]: 1570
SPOT intensity [25]: 21
SPOT intensity [26]: 14
SPOT intensity [27]: 0

B4: unnamed (peptide)
chain: SSSSTPPTLPPRRIE
SPOT intensity [1]: 19
SPOT intensity [2]: 11
SPOT intensity [3]: 0
SPOT intensity [4]: 0
SPOT intensity [5]: 0
SPOT intensity [6]: 0
SPOT intensity [7]: 0
SPOT intensity [8]: 0
SPOT intensity [9]: 0
SPOT intensity [10]: 2
SPOT intensity [11]: 0
SPOT intensity [12]: 0
SPOT intensity [13]: 0
SPOT intensity [14]: 5
SPOT intensity [15]: 9
SPOT intensity [16]: 1360
SPOT intensity [17]: 1090
SPOT intensity [18]: 907
SPOT intensity [19]: 99
SPOT intensity [20]: 11
SPOT intensity [21]: 0
SPOT intensity [22]: 365
SPOT intensity [23]: 58
SPOT intensity [24]: 5650
SPOT intensity [25]: 0
SPOT intensity [26]: 1
SPOT intensity [27]: 1
